Like-named read-outs stand apart in the source and are kept apart here.

Experiment [1] deals with T1, human GPRC5D (human, UniProt Q9NZD1 1-345).
T1 construct: whole, on cells; also called membrane surface GPRC5D
Nature of the experiment: FACS, MM.1R cells. How it is done: (§1) To test the capacity of the GPRC5D/CD3 bispecific antibodies of the present disclosure to bind to GPRC5D, a flow cytometry assay was used in this test example to measure the capacity of the GPRC5D/CD3 bispecific antibodies to bind to the human multiple myeloma cell line MM.1R (ATCC® CRL-2975), which expresses GPRC5D, and to a stably transfected cell strain CHOK1-cynoGPRC5D, which expresses cynomolgus monkey GPRC5D. The specific procedure was as follows: The cells described above were cultured in complete culture medium containing 10% FBS, incubated in a 37° C., 5% CO₂ incubator for 2 days, and added to a cell plate at 1×10⁵ cells/well. The plate was centrifuged at 300 g for 5 min and washed once with 1% BSA. The antibodies were serially diluted to 8 concentrations and added to the cell plate at 100 μL/well. The plate was incubated at 4° C. for 1 h and washed once with 1% BSA. […] The plate was washed three times with 1% BSA, PBS was added at 100 μL/well, and plate reading was performed.

Experiment [2] concerns the target T2, cynomolgus monkey GPRC5D (cynomolgus monkey).
T2 construct: whole, on cells; also called CynoGPRC5D; cynoGPRC5D
Put plainly: FACS, CHOK1-cynoGPRC5D cells. How it is done: as §1

Experiment [3] concerns the target T1, human GPRC5D. Put plainly: FACS, MM.1R cells. How it is done: as §1
This is another data set of the same source.

Experiment [4] concerns the target T2, cynomolgus monkey GPRC5D. Nature of the experiment: FACS, CHOK1-cynoGPRC5D cells. How it is done: as §1
This is another data set of the same source.

T1 sequence (Q9NZD1 whole entry): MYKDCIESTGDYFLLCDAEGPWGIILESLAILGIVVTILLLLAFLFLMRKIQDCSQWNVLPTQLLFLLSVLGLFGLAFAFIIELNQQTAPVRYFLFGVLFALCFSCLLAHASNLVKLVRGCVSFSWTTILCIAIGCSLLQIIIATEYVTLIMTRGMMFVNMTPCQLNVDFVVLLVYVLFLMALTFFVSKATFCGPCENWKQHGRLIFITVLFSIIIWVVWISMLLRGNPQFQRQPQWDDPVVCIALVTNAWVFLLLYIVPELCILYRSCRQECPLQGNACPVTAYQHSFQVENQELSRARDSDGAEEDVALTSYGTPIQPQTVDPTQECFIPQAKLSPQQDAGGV

B1: F11-7 (bispecific antibody)
heavy: not shown
light: DVVLTQSPLSLPVTLGQPASISCKSSQSLLHSNGKTYLNWLLQRPGQSPRRLIYLVSKLDSGVPDRFSGSGSGTDFTLKISRVEAEDVGVYYCAQGTHFPRTFGGGTKVEIKRTVAAPSVFIFPPSDEQLKSGTASVVCLLNNFYPREAKVQWKVDNALQSGNSQESVTEQDSKDSTYSLSSTLTLSKADYEKHKVYACEVTHQGLSSPVTKSFNRGEC
notes: formula 11
In the case of B1, the figures for the 50% effective concentration (EC50) in experiment [1], in experiment [2] and in experiment [3] were 1.89 nM, 0.76 nM and 1.89 nM, respectively. In addition, in experiment [3], the Max came to 2020.

B2: F11-11 (bispecific antibody)
heavy: not shown
light: DVVLTQSPLSLPVTLGQPASISCKSSQSLLHSSGKTYLNWLLQRPGQSPRRLIYLVSKLDSGVPDRFSGSGSGTDFTLKISRVEAEDVGVYYCAQGTHFPRTFGGGTKVEIKRTVAAPSVFIFPPSDEQLKSGTASVVCLLNNFYPREAKVQWKVDNALQSGNSQESVTEQDSKDSTYSLSSTLTLSKADYEKHKVYACEVTHQGLSSPVTKSFNRGEC
notes: formula 11
Take B2: the concentration giving a half-maximal response (EC50) worked out at 1.7 nM in experiment [1], 1.01 nM in experiment [2] and 1.7 nM in experiment [3]. In experiment [3], the Max came to 1560.

B3: F11-10 (bispecific antibody)
heavy: not shown
light: DVVLTQSPLSLPVTLGQPASISCKSSQSLLHSNGKTYLNWLLQRPGQSPRRLIYLVSKLDSGVPDRFSGSGSGTDFTLKISRVEAEDVGVYYCAQGTHFPRTFGGGTKVEIKRTVAAPSVFIFPPSDEQLKSGTASVVCLLNNFYPREAKVQWKVDNALQSGNSQESVTEQDSKDSTYSLSSTLTLSKADYEKHKVYACEVTHQGLSSPVTKSFNRGEC
notes: formula 11
As for B3, the values for the EC50 in experiment [1], in experiment [2] and in experiment [3] were 1.29 nM, 0.4 nM and 1.29 nM, respectively. The same molecule had a Max in experiment [3] of 1470.

B4: F11-9 (bispecific antibody)
heavy: not shown
light: DVVLTQSPLSLPVTLGQPASISCKSSQSLLHSTGKTYLNWLLQRPGQSPRRLIYLVSKLDSGVPDRFSGSGSGTDFTLKISRVEAEDVGVYYCAQGTHFPRTFGGGTKVEIKRTVAAPSVFIFPPSDEQLKSGTASVVCLLNNFYPREAKVQWKVDNALQSGNSQESVTEQDSKDSTYSLSSTLTLSKADYEKHKVYACEVTHQGLSSPVTKSFNRGEC
notes: formula 11
B4: the EC50 in experiment [1] is 2.16 nM; in experiment [2] it was 0.17 nM; in experiment [3], 2.16 nM. Moreover, the Max in experiment [3] is 1950.

B5: F11-12 (bispecific antibody)
heavy: not shown
light: DVVLTQSPLSLPVTLGQPASISCKSSQSLLHSTGKTYLNWLLQRPGQSPRRLIYLVSKLDSGVPDRFSGSGSGTDFTLKISRVEAEDVGVYYCAQGTHFPRTFGGGTKVEIKRTVAAPSVFIFPPSDEQLKSGTASVVCLLNNFYPREAKVQWKVDNALQSGNSQESVTEQDSKDSTYSLSSTLTLSKADYEKHKVYACEVTHQGLSSPVTKSFNRGEC
notes: formula 11
With B5, the results for the EC50 in experiment [1], in experiment [2] and in experiment [3] were 1.93 nM, 1.6 nM and 1.93 nM, respectively. The molecule also returned a Max in experiment [3] of 1600.

B6: F11-8 (bispecific antibody)
heavy: not shown
light: DVVLTQSPLSLPVTLGQPASISCKSSQSLLHSSGKTYLNWLLQRPGQSPRRLIYLVSKLDSGVPDRFSGSGSGTDFTLKISRVEAEDVGVYYCAQGTHFPRTFGGGTKVEIKRTVAAPSVFIFPPSDEQLKSGTASVVCLLNNFYPREAKVQWKVDNALQSGNSQESVTEQDSKDSTYSLSSTLTLSKADYEKHKVYACEVTHQGLSSPVTKSFNRGEC
notes: formula 11
As to B6, the EC50 in experiment [1] is 2 nM; in experiment [2], 0.36 nM; in experiment [3], 2 nM. In experiment [3], the Max amounted to 1910.

B7: F11-2 (bispecific antibody)
heavy: not shown
light: DVVMTQTPLSLSVTPGQPASISCRSSQSLVHSSGNTYLYWYLQKPGQSPKLLIYKVSNRFSGVPDRFSGSGSGTDFTLKISRVEAEDVGVYYCSQSTHVPPLTFGQGTKLEIKRTVAAPSVFIFPPSDEQLKSGTASVVCLLNNFYPREAKVQWKVDNALQSGNSQESVTEQDSKDSTYSLSSTLTLSKADYEKHKVYACEVTHQGLSSPVTKSFNRGEC
notes: formula 11
As for B7, the EC50 in experiment [1] came to 0.35 nM; in experiment [4], 0.47 nM; in experiment [2], 0.47 nM; in experiment [3], 0.35 nM. Further, the Max in experiment [4] turned out to be 1.09; in experiment [3], 1.63.

B8: F11-3 (bispecific antibody)
heavy: not shown
light: DVVMTQTPLSLSVTPGQPASISCRSSQSLVHSQGNTYLYWYLQKPGQSPKLLIYKVSNRFSGVPDRFSGSGSGTDFTLKISRVEAEDVGVYYCSQSTHVPPLTFGQGTKLEIKRTVAAPSVFIFPPSDEQLKSGTASVVCLLNNFYPREAKVQWKVDNALQSGNSQESVTEQDSKDSTYSLSSTLTLSKADYEKHKVYACEVTHQGLSSPVTKSFNRGEC
notes: formula 11
For the molecule B8, the concentration for a half-maximal effect (EC50) in experiment [1] was determined as 0.3 nM; in experiment [4], 0.27 nM; in experiment [2] it was 0.27 nM; in experiment [3] it was 0.3 nM. Besides, the Max in experiment [4] stood at 1.45; in experiment [3], 1.8.

B9: F11-1 (bispecific antibody)
heavy: not shown
light: DIVMTQTPLSLSVTPGQPASISCRSSQSLVHSNGNTYLYWYLQKPGQSPQLLIYKVSNRFSGVPDRFSGSGSGTDFTLKISRVEAEDVGVYYCSQSTHVPPLTFGQGTKLEIKRTVAAPSVFIFPPSDEQLKSGTASVVCLLNNFYPREAKVQWKVDNALQSGNSQESVTEQDSKDSTYSLSSTLTLSKADYEKHKVYACEVTHQGLSSPVTKSFNRGEC
notes: formula 11, GPRC5D x CD3 (S107E scFv)
As for B9, the concentration for a half-maximal effect (EC50) in experiment [1] is 0.44 nM; in experiment [4], 0.36 nM; in experiment [2], 0.36 nM; in experiment [3], 0.44 nM. Further, the Max stood at 1.31 in experiment [4] and 1.76 in experiment [3].

B10: F11-4 (bispecific antibody)
heavy: not shown
light: DIVMTQTPLSLSVTPGQPASISCRSSQSLVHSNGNTYLYWYLQKPGQSPQLLIYKVSNRFSGVPDRFSGSGSGTDFTLKISRVEAEDVGVYYCSQSTHVPPLTFGQGTKLEIKRTVAAPSVFIFPPSDEQLKSGTASVVCLLNNFYPREAKVQWKVDNALQSGNSQESVTEQDSKDSTYSLSSTLTLSKADYEKHKVYACEVTHQGLSSPVTKSFNRGEC
notes: formula 11
On to B10, for which the half-maximal effective concentration (EC50) in experiment [1] stood at 0.39 nM; in experiment [4], 0.28 nM; in experiment [2], 0.28 nM; in experiment [3], 0.39 nM. Further, the Max worked out at 1.27 in experiment [4] and 1.66 in experiment [3].

B11: F11-5 (bispecific antibody)
heavy: not shown
light: DVVMTQTPLSLSVTPGQPASISCRSSQSLVHSSGNTYLYWYLQKPGQSPKLLIYKVSNRFSGVPDRFSGSGSGTDFTLKISRVEAEDVGVYYCSQSTHVPPLTFGQGTKLEIKRTVAAPSVFIFPPSDEQLKSGTASVVCLLNNFYPREAKVQWKVDNALQSGNSQESVTEQDSKDSTYSLSSTLTLSKADYEKHKVYACEVTHQGLSSPVTKSFNRGEC
notes: formula 11
With B11, the 50% effective concentration (EC50) in experiment [1] was 0.34 nM; in experiment [4], 0.41 nM; in experiment [2] it was 0.42 nM; in experiment [3], 0.34 nM. The Max in experiment [4] worked out at 1.12; in experiment [3] it was 1.6.

B12: F11-6 (bispecific antibody)
heavy: not shown
light: DVVMTQTPLSLSVTPGQPASISCRSSQSLVHSQGNTYLYWYLQKPGQSPKLLIYKVSNRFSGVPDRFSGSGSGTDFTLKISRVEAEDVGVYYCSQSTHVPPLTFGQGTKLEIKRTVAAPSVFIFPPSDEQLKSGTASVVCLLNNFYPREAKVQWKVDNALQSGNSQESVTEQDSKDSTYSLSSTLTLSKADYEKHKVYACEVTHQGLSSPVTKSFNRGEC
notes: formula 11
As to B12, the concentration giving a half-maximal response (EC50) was 0.23 nM in experiment [1], 0.32 nM in experiment [4], 0.32 nM in experiment [2] and 0.23 nM in experiment [3]. The Max in experiment [4] came to 1.35; in experiment [3] it was 1.6.

B13: F4-9 (bispecific antibody)
heavy 1: not shown
light 1: not shown
heavy 2: EVKLVESGGGLVQPGDFLSLSCAASGFTFTDYYLSWVRQPPGKALEWLAFIRNRAKGYTTEYSASVKGRFTISRDNSQSILYLQMNVLRAEDSATYYCARMGGKGWHFDVWGTGTTVTVSSASTKGPSVFPLAPSSKSTSGGTAALGCLVKDYFPEPVTVSWNSGALTSGVHTFPAVLQSSGLYSLSSVVTVPSSSLGTQTYICNVNHKPSNTKVDKKVEPKSCDKTHTCPPCPAPEAAGGPSVFLFPPKPKDTLMISRTPEVTCVVVDVSHEDPEVKFNWYVDGVEVHNAKTKPREEQYNSTYRVVSVLTVLHQDWLNGKEYKCKVSNKALPAPIEKTISKAKGQPREPQVCTLPPSRDELTKNQVSLSCAVKGFYPSDIAVEWESNGQPENNYKTTPPVLDSDGSFFLVSKLTVDKSRWQQGNVFSCSVMHEALHNHYTQKSLSLSPGK
light 2: DVLMTQSPLSLPVSLGDQASISCRSSQSIVHSNGNTYLEWYLQKPGQSPKLLIYKVSNRFSGVPDRFFGSGSGTDFTLKINRVEAEDLGVYYCFQGSHVPFTFGGGTKLEIKRTVAAPSVFIFPPSDEQLKSGTASVVCLLNNFYPREAKVQWKVDNALQSGNSQESVTEQDSKDSTYSLSSTLTLSKADYEKHKVYACEVTHQGLSSPVTKSFNRGEC
notes: formula 4 with Chi-45 variable regions
In experiment [4], B13 displayed a 50% effective concentration (EC50) of 4.01 nM and a Max of 83700. Moreover, in experiment [3], the 50% effective concentration (EC50) is 19.2 nM and the Max came to 13200.

B14: F2-4 (bispecific antibody)
heavy 1: not shown
light 1: DVVMTQSPLSLPVTPGEPASISCRSSQSIVHSNRNTYLEWYLQKPGQSPKLLIYKVSNRFSGVPDRFFGSGSGTDFTLKINRVEAEDVGVYYCFQGSHVPFTFGGGTKVEIKRTVAAPSVFIFPPSDEQLKSGTASVVCLLNNFYPREAKVQWKVDNALQSGNSQESVTEQDSKDSTYSLSSTLTLSKADYEKHKVYACEVTHQGLSSPVTKSFNRGEC
heavy 2: not shown
light 2: not shown
notes: formula 2
As to B14, the figures for the EC50 in experiment [1] and in experiment [2] were 7.56 nM and 3.95 nM, respectively.
